In PMC3034952 (Enzyme Research, 2011):
Substitutions are numbered along the chain they refer to.

Tests used:
Experiment in all cases: SEC; purified recombinant AtPDC E1 on a Superose 12 column in 50 mM TES-NaOH, pH 7.4, 50 mM NaCl, 0.1 mM TPP, 0.2 mM MgCl2; fractions analysed by SDS-PAGE and immunoblotting
Details in all cases: both partners purified
[1] = target: T1, AtPDC E1α S292A mutant, H6-tagged (Arabidopsis thaliana, UniProt P52901 18-389, S292A)
T1 sequence (looked up): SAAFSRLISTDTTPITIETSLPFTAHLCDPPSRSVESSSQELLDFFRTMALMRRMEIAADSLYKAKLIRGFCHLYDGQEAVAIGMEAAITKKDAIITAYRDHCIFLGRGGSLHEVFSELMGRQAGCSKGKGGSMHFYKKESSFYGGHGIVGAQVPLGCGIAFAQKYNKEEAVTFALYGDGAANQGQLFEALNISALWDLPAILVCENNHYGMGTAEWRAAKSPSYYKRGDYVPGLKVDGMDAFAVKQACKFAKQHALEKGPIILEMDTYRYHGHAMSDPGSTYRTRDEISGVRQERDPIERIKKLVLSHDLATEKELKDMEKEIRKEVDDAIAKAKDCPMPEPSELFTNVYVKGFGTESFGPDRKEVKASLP

[2] = target: T2, AtPDC E1α D295L mutant, H6-tagged (Arabidopsis thaliana, UniProt P52901 18-389, D295L)
T2 sequence (looked up): T1 sequence (looked up) with A275S, D278L

[3] = target: T3, AtPDC E1α G297S mutant, H6-tagged (Arabidopsis thaliana, UniProt P52901 18-389, G297S)
T3 sequence (looked up): T1 sequence (looked up) with A275S, G280S

[4] = target: T4, AtPDC E1α S292D mutant, H6-tagged (Arabidopsis thaliana, UniProt P52901 18-389, S292D)
T4 sequence (looked up): T1 sequence (looked up) with A275D

[5] = target: T5, AtPDC E1α G297D mutant, H6-tagged (Arabidopsis thaliana, UniProt P52901 18-389, G297D)
T5 sequence (looked up): T1 sequence (looked up) with A275S, G280D

Measured: binding result

B1: Arabidopsis thaliana mitochondrial pyruvate dehydrogenase E1β subunit (AtPDC E1β), FLAG-tagged (enzyme, UniProt Q38799 30-363, looked up)
chain: AAGAKEMTVRDALNSAIDEEMSADPKVFVMGEEVGQYQGAYKITKGLLEKYGPERVYDTPITEAGFTGIGVGAAYAGLKPVVEFMTFNFSMQAIDHIINSAAKSNYMSAGQINVPIVFRGPNGAAAGVGAQHSQCYAAWYASVPGLKVLAPYSAEDARGLLKAAIRDPDPVVFLENELLYGESFPISEEALDSSFCLPIGKAKIEREGKDVTIVTFSKMVGFALKAAEKLAEEGISAEVINLRSIRPLDRATINASVRKTSRLVTVEEGFPQHGVCAEICASVVEESFSYLDAPVERIAGADVPMPYAANLERLALPQIEDIVRASKRACYRSK
binds: [1] | [2] | [3] | [4] | [5]
